The values that follow come from article doi:10.1101/2025.01.22.634249.

This experiment has as its target TMHC2, designed transmembrane (TM) homodimer, monomeric construct with N-terminal SpyTag and SnoopTag (wild type). As to the kind of experiment: single-molecule magnetic tweezers.

Regarding TRTEIIRELERSL [peptide II (13-aa peptide …)], the increase of partial TMHC2 dimerization up to the I1 state with peptide II worked out at 41%, the percent of traces with only partial TMHC2 dimerization with 10 μM peptide was 62% and the probability of complete TMHC2 dimerization with 10 μM peptide was 38%.
